Experimental data: patent US20040002442A1 (Bayer, published 2004)
Ends that are not written are not given here. * marks the point of attachment. Palmitoyl = CCCCCCCCCCCCCCCC(=O)*

Legend:
[1] = target: T1, glucagon receptor present in the plasma membranes isolated from rat liver (rat, UniProt P30082 27-485); experiment: cell-based or functional assay
[2] = target: T2, GLP-1 receptor present in the plasma membranes isolated from RINm5F cells (UniProt P32301 22-463, limits assumed); experiment: cell-based or functional assay
T2 sequence (looked up): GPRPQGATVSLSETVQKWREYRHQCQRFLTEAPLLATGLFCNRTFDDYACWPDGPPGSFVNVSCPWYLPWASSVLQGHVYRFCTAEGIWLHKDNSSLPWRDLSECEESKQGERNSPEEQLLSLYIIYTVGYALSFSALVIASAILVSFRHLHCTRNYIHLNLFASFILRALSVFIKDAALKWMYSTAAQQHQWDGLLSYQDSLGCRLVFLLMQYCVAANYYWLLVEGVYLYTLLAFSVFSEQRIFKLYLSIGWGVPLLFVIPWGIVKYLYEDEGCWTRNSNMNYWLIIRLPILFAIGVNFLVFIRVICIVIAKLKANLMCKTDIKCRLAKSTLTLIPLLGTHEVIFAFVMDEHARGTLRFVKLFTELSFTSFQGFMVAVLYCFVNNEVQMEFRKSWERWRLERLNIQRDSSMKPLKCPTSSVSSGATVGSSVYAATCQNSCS

[3] = target: T2, GLP-1 receptor present in the plasma …; experiment: 125I-GLP-1 displacement, RINm5F plasma membranes
Protocol: (§1) Competitive binding of some polypeptides of the invention to RINm5F cell plasma membranes was measured as follows. Ninety-six-well GF/C filtration plates (Millipore, Bedford, Ma.) were blocked with 0.3% PEI for at least one hour and washed twice with binding buffer consisting of 20 mM Tris, 2 mM EDTA, pH 7.5, 1 mg/ml BSA, and 1 mg/ml bacitracin. […] The plates were dried, scintillant was added to each well, and cpm per well determined using a Wallac Microbeta counter.

[4] = target: T1, glucagon receptor present in the plasma …; experiment: 125I-glucagon displacement, rat liver plasma membranes
Protocol: as §1, with “rat liver” for “RINm5F cell”, “0.1%” for “0.3%”

T1 sequence (P30082 27-485): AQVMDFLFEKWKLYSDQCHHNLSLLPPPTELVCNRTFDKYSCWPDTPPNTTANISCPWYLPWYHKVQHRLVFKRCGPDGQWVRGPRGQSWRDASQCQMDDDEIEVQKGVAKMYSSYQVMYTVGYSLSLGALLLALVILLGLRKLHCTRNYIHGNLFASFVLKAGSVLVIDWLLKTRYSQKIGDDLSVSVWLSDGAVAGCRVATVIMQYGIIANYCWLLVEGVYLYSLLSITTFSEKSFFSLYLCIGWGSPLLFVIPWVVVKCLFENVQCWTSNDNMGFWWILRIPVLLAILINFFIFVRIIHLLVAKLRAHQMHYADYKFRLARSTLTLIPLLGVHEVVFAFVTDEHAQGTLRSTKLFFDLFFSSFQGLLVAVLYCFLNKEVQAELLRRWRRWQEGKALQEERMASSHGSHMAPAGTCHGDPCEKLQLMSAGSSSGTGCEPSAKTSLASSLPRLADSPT

HSQGTFTSDYARYLDARRAKEFIAWLVKGR-NH2 [G55] was tested, and the “% Inhib glucagon stimulated cAMP increase (10 uM peptide, rat hepatocytes)” value [1] was 32.1%, the “% GLP1 max, cAMP SPA in RINm5F cells” value [2] was 116% and the “Relative Potency (%), cAMP SPA in RINm5F cells” value (shortened to “Relative Potency (%), cAMP SPA”) [2] was 18.6%. For the same binder, the IC50 [3] was 9.8 nM and the IC50 [4] was 139 nM.

HSQGTFTSDYAAYLDARRAKEFIAWLVKGR-NH2 [G56] was tested, and the “% Inhib glucagon stimulated cAMP increase (10 uM peptide, rat hepatocytes)” value [1] was 28.6%, the “% GLP1 max, cAMP SPA in RINm5F cells” value [2] was 115% and the “Relative Potency (%), cAMP SPA” value [2] was 37.2%. For the same binder, the IC50 [3] was 6.6 nM and the IC50 [4] was 125 nM.

With HSQGTFTSDYAKYLDAARAKEFIAWLVKGR-NH2 [G57] the “% Inhib glucagon stimulated cAMP increase (10 uM peptide, rat hepatocytes)” value [1] was 18.4%, the “% GLP1 max, cAMP SPA in RINm5F cells” value [2] was 132% and the “Relative Potency (%), cAMP SPA” value [2] was 18.3%. For the same binder, the IC50 [3] was 14.7 nM and the IC50 [4] was 178 nM.

In the case of HSQGTFTSDYARYLDARRAREFIAWLVRGRGK [G85], the “% Inhib glucagon stimulated cAMP increase (10 uM peptide, rat hepatocytes)” value [1] is reported as 27.9%, the “% GLP1 max, cAMP SPA in RINm5F cells” value [2] is reported as 95.8% and the “Relative Potency (%), cAMP SPA” value [2] is reported as 64.5%. For the same binder, the IC50 [3] was 1.5 nM and the IC50 [4] was 16.1 nM.

B1: G87 (peptide)
peptide: HSQGTFTSDYAKYLDARRAK(Palmitoyl)EFIAWLVKGR-NH2
modifications: N-terminus assumed
SMILES: CCCCCCCCCCCCCCCC(=O)NCCCC[C@H](NC(=O)[C@H](C)NC(=O)[C@H](CCCNC(=N)N)NC(=O)[C@H](CCCNC(=N)N)NC(=O)[C@H](C)NC(=O)[C@H](CC(=O)O)NC(=O)[C@H](CC(C)C)NC(=O)[C@H](Cc1ccc(O)cc1)NC(=O)[C@H](CCCCN)NC(=O)[C@H](C)NC(=O)[C@H](Cc1ccc(O)cc1)NC(=O)[C@H](CC(=O)O)NC(=O)[C@H](CO)NC(=O)[C@@H](NC(=O)[C@H](Cc1ccccc1)NC(=O)[C@@H](NC(=O)CNC(=O)[C@H](CCC(N)=O)NC(=O)[C@H](CO)NC(=O)[C@@H](N)Cc1c[nH]cn1)[C@@H](C)O)[C@@H](C)O)C(=O)N[C@@H](CCC(=O)O)C(=O)N[C@@H](Cc1ccccc1)C(=O)N[C@H](C(=O)N[C@@H](C)C(=O)N[C@@H](Cc1c[nH]c2ccccc12)C(=O)N[C@@H](CC(C)C)C(=O)N[C@H](C(=O)N[C@@H](CCCCN)C(=O)NCC(=O)N[C@@H](CCCNC(=N)N)C(N)=O)C(C)C)[C@@H](C)CC
B1 was tested, and the “% Inhib glucagon stimulated cAMP increase (10 uM peptide, rat hepatocytes)” value [1] was 59%, the “% GLP1 max, cAMP SPA in RINm5F cells” value [2] was 100% and the “Relative Potency (%), cAMP SPA” value [2] was 6.1%. It also gave an IC50 [3] of 98.6 nM and an IC50 [4] of 620 nM.
